The supplement of paper PMC9112550, “Optimization of the antimicrobial peptide Bac7 by deep mutational scanning” (BMC Biology, 2022)

System: Escherichia coli TOP10
Experiment: shrunken log2 fold change of peptide-encoding DNA abundance (4.5 h post-induction vs induction); higher = less antimicrobial activity (less host growth inhibition)
Settings: time post-induction: 4.5 h; library: site-saturation at positions 5, 18, 19, 20
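Also: peptides expressed intracellularly from a pBAD plasmid library in pooled LB shake-flask culture, induced with 0.3% L-arabinose, DNA abundance read by NGS, three biological replicates, DESeq2 with apeglm shrinkage.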

Sequence: RRIRARPPRLPRPRPRPHSAPRP
- shrunken log2 fold change: -0.0202

Sequence: RRIRARPPRLPRPRPRPHSIPRP
- shrunken log2 fold change: -0.344

Sequence: RRIRARPPRLPRPRPRPHSNPRP
- shrunken log2 fold change: -0.251

Sequence: RRIRARPPRLPRPRPRPHTPPRP
- shrunken log2 fold change: 0.152

Sequence: RRIRARPPRLPRPRPRPICAPRP
- shrunken log2 fold change: 0.799

Sequence: RRIRARPPRLPRPRPRPICEPRP
- shrunken log2 fold change: 0.512

Sequence: RRIRARPPRLPRPRPRPIDCPRP
- shrunken log2 fold change: 0.335

Sequence: RRIRARPPRLPRPRPRPIDIPRP
- shrunken log2 fold change: 0.0327

Sequence: RRIRARPPRLPRPRPRPIEQPRP
- shrunken log2 fold change: 0.124

Sequence: RRIRARPPRLPRPRPRPIFIPRP
- shrunken log2 fold change: 0.127

Sequence: RRIRARPPRLPRPRPRPIGAPRP
- shrunken log2 fold change: 0.716

Sequence: RRIRARPPRLPRPRPRPIGGPRP
- shrunken log2 fold change: -0.0402

Sequence: RRIRARPPRLPRPRPRPIIEPRP
- shrunken log2 fold change: 0.00879

Sequence: RRIRARPPRLPRPRPRPIIMPRP
- shrunken log2 fold change: -0.258

Sequence: RRIRARPPRLPRPRPRPIKYPRP
- shrunken log2 fold change: -0.38

Sequence: RRIRARPPRLPRPRPRPILNPRP
- shrunken log2 fold change: -0.273

Sequence: RRIRARPPRLPRPRPRPIMFPRP
- shrunken log2 fold change: -0.0901

Sequence: RRIRARPPRLPRPRPRPIPMPRP
- shrunken log2 fold change: 0.0374

Sequence: RRIRARPPRLPRPRPRPIQEPRP
- shrunken log2 fold change: 0.116

Sequence: RRIRARPPRLPRPRPRPIQQPRP
- shrunken log2 fold change: 0.0227

Sequence: RRIRARPPRLPRPRPRPIQVPRP
- shrunken log2 fold change: -0.215

Sequence: RRIRARPPRLPRPRPRPIRFPRP
- shrunken log2 fold change: 0.247

Sequence: RRIRARPPRLPRPRPRPIVDPRP
- shrunken log2 fold change: 0.543

Sequence: RRIRARPPRLPRPRPRPIYNPRP
- shrunken log2 fold change: -0.668

Sequence: RRIRARPPRLPRPRPRPKAEPRP
- shrunken log2 fold change: 0.821

Sequence: RRIRARPPRLPRPRPRPKDFPRP
- shrunken log2 fold change: -0.0146

Sequence: RRIRARPPRLPRPRPRPKDNPRP
- shrunken log2 fold change: 0.153

Sequence: RRIRARPPRLPRPRPRPKFDPRP
- shrunken log2 fold change: 0.376

Sequence: RRIRARPPRLPRPRPRPKFHPRP
- shrunken log2 fold change: 0.133

Sequence: RRIRARPPRLPRPRPRPKGAPRP
- shrunken log2 fold change: 0.514

Sequence: RRIRARPPRLPRPRPRPKGFPRP
- shrunken log2 fold change: 0.102

Sequence: RRIRARPPRLPRPRPRPKGYPRP
- shrunken log2 fold change: 0.049

Sequence: RRIRARPPRLPRPRPRPKHDPRP
- shrunken log2 fold change: 0.263

Sequence: RRIRARPPRLPRPRPRPKHKPRP
- shrunken log2 fold change: 0.172

Sequence: RRIRARPPRLPRPRPRPKINPRP
- shrunken log2 fold change: -0.0292

Sequence: RRIRARPPRLPRPRPRPKKCPRP
- shrunken log2 fold change: 0.0283

Sequence: RRIRARPPRLPRPRPRPKKQPRP
- shrunken log2 fold change: 0.0491

Sequence: RRIRARPPRLPRPRPRPKLHPRP
- shrunken log2 fold change: 0.366

Sequence: RRIRARPPRLPRPRPRPKLSPRP
- shrunken log2 fold change: 0.138

Sequence: RRIRARPPRLPRPRPRPKSLPRP
- shrunken log2 fold change: -0.109

Sequence: RRIRARPPRLPRPRPRPKVIPRP
- shrunken log2 fold change: 0.116

Sequence: RRIRARPPRLPRPRPRPKVWPRP
- shrunken log2 fold change: 0.766

Sequence: RRIRARPPRLPRPRPRPKYNPRP
- shrunken log2 fold change: -0.411

Sequence: RRIRARPPRLPRPRPRPKYTPRP
- shrunken log2 fold change: -0.013

Sequence: RRIRARPPRLPRPRPRPLAHPRP
- shrunken log2 fold change: 0.296

Sequence: RRIRARPPRLPRPRPRPLCQPRP
- shrunken log2 fold change: 0.42

Sequence: RRIRARPPRLPRPRPRPLDPPRP
- shrunken log2 fold change: 0.244

Sequence: RRIRARPPRLPRPRPRPLEFPRP
- shrunken log2 fold change: 0.231

Sequence: RRIRARPPRLPRPRPRPLEGPRP
- shrunken log2 fold change: 0.564

Sequence: RRIRARPPRLPRPRPRPLFKPRP
- shrunken log2 fold change: 0.117

Sequence: RRIRARPPRLPRPRPRPLGMPRP
- shrunken log2 fold change: 0.0985

Sequence: RRIRARPPRLPRPRPRPLGSPRP
- shrunken log2 fold change: 0.471

Sequence: RRIRARPPRLPRPRPRPLGYPRP
- shrunken log2 fold change: 0.223

Sequence: RRIRARPPRLPRPRPRPLHCPRP
- shrunken log2 fold change: 0.617

Sequence: RRIRARPPRLPRPRPRPLHLPRP
- shrunken log2 fold change: 0.0337

Sequence: RRIRARPPRLPRPRPRPLHSPRP
- shrunken log2 fold change: 0.0941

Sequence: RRIRARPPRLPRPRPRPLHWPRP
- shrunken log2 fold change: 0.387

Sequence: RRIRARPPRLPRPRPRPLIHPRP
- shrunken log2 fold change: -0.117

Sequence: RRIRARPPRLPRPRPRPLNDPRP
- shrunken log2 fold change: 0.0895

Sequence: RRIRARPPRLPRPRPRPLNGPRP
- shrunken log2 fold change: 0.0986

Sequence: RRIRARPPRLPRPRPRPLPLPRP
- shrunken log2 fold change: 0.186

Sequence: RRIRARPPRLPRPRPRPLPNPRP
- shrunken log2 fold change: 0.286

Sequence: RRIRARPPRLPRPRPRPLQVPRP
- shrunken log2 fold change: 0.151

Sequence: RRIRARPPRLPRPRPRPLRCPRP
- shrunken log2 fold change: 0.242

Sequence: RRIRARPPRLPRPRPRPLSEPRP
- shrunken log2 fold change: 0.172

Sequence: RRIRARPPRLPRPRPRPLSFPRP
- shrunken log2 fold change: 0.0158

Sequence: RRIRARPPRLPRPRPRPLSKPRP
- shrunken log2 fold change: -0.0286

Sequence: RRIRARPPRLPRPRPRPLSMPRP
- shrunken log2 fold change: -0.129

Sequence: RRIRARPPRLPRPRPRPLTGPRP
- shrunken log2 fold change: 0.172

Sequence: RRIRARPPRLPRPRPRPLTNPRP
- shrunken log2 fold change: 0.303

Sequence: RRIRARPPRLPRPRPRPLTPPRP
- shrunken log2 fold change: 0.548

Sequence: RRIRARPPRLPRPRPRPLTQPRP
- shrunken log2 fold change: 0.209

Sequence: RRIRARPPRLPRPRPRPLVTPRP
- shrunken log2 fold change: 0.178

Sequence: RRIRARPPRLPRPRPRPLYGPRP
- shrunken log2 fold change: -0.203

Sequence: RRIRARPPRLPRPRPRPMASPRP
- shrunken log2 fold change: 0.543

Sequence: RRIRARPPRLPRPRPRPMAYPRP
- shrunken log2 fold change: 0.546

Sequence: RRIRARPPRLPRPRPRPMCEPRP
- shrunken log2 fold change: 0.797

Sequence: RRIRARPPRLPRPRPRPMCLPRP
- shrunken log2 fold change: 0.0284

Sequence: RRIRARPPRLPRPRPRPMCVPRP
- shrunken log2 fold change: 0.188

Sequence: RRIRARPPRLPRPRPRPMEKPRP
- shrunken log2 fold change: -0.00226

Sequence: RRIRARPPRLPRPRPRPMELPRP
- shrunken log2 fold change: 0.114

Sequence: RRIRARPPRLPRPRPRPMFRPRP
- shrunken log2 fold change: -0.217

Sequence: RRIRARPPRLPRPRPRPMFWPRP
- shrunken log2 fold change: 0.19

Sequence: RRIRARPPRLPRPRPRPMHIPRP
- shrunken log2 fold change: -0.132

Sequence: RRIRARPPRLPRPRPRPMIFPRP
- shrunken log2 fold change: 0.292

Sequence: RRIRARPPRLPRPRPRPMIPPRP
- shrunken log2 fold change: 0.0233

Sequence: RRIRARPPRLPRPRPRPMLEPRP
- shrunken log2 fold change: 0.455

Sequence: RRIRARPPRLPRPRPRPMLHPRP
- shrunken log2 fold change: 0.206

Sequence: RRIRARPPRLPRPRPRPMMGPRP
- shrunken log2 fold change: 0.082

Sequence: RRIRARPPRLPRPRPRPMNHPRP
- shrunken log2 fold change: -0.151

Sequence: RRIRARPPRLPRPRPRPMPQPRP
- shrunken log2 fold change: 0.378

Sequence: RRIRARPPRLPRPRPRPMPRPRP
- shrunken log2 fold change: 0.827

Sequence: RRIRARPPRLPRPRPRPMQVPRP
- shrunken log2 fold change: 0.277

Sequence: RRIRARPPRLPRPRPRPMRLPRP
- shrunken log2 fold change: 1.29

Sequence: RRIRARPPRLPRPRPRPMRQPRP
- shrunken log2 fold change: 0.829

Sequence: RRIRARPPRLPRPRPRPMSKPRP
- shrunken log2 fold change: 0.16

Sequence: RRIRARPPRLPRPRPRPMTLPRP
- shrunken log2 fold change: 0.151

Sequence: RRIRARPPRLPRPRPRPMTTPRP
- shrunken log2 fold change: 0.505

Sequence: RRIRARPPRLPRPRPRPMVGPRP
- shrunken log2 fold change: 0.548

Sequence: RRIRARPPRLPRPRPRPMYAPRP
- shrunken log2 fold change: 0.207

Sequence: RRIRARPPRLPRPRPRPMYEPRP
- shrunken log2 fold change: -0.0125

Sequence: RRIRARPPRLPRPRPRPMYKPRP
- shrunken log2 fold change: -0.189

Sequence: RRIRARPPRLPRPRPRPMYWPRP
- shrunken log2 fold change: -0.0443

Sequence: RRIRARPPRLPRPRPRPNAAPRP
- shrunken log2 fold change: 1.13

Sequence: RRIRARPPRLPRPRPRPNAFPRP
- shrunken log2 fold change: 0.424

Sequence: RRIRARPPRLPRPRPRPNARPRP
- shrunken log2 fold change: 0.124

Sequence: RRIRARPPRLPRPRPRPNCKPRP
- shrunken log2 fold change: -0.0213

Sequence: RRIRARPPRLPRPRPRPNDLPRP
- shrunken log2 fold change: 0.172

Sequence: RRIRARPPRLPRPRPRPNEIPRP
- shrunken log2 fold change: -0.179

Sequence: RRIRARPPRLPRPRPRPNELPRP
- shrunken log2 fold change: 0.343

Sequence: RRIRARPPRLPRPRPRPNEVPRP
- shrunken log2 fold change: 0.0341

Sequence: RRIRARPPRLPRPRPRPNEWPRP
- shrunken log2 fold change: 0.0144

Sequence: RRIRARPPRLPRPRPRPNFFPRP
- shrunken log2 fold change: 0.349

Sequence: RRIRARPPRLPRPRPRPNHRPRP
- shrunken log2 fold change: 0.00751

Sequence: RRIRARPPRLPRPRPRPNKNPRP
- shrunken log2 fold change: 0.0222

Sequence: RRIRARPPRLPRPRPRPNKRPRP
- shrunken log2 fold change: 0.214

Sequence: RRIRARPPRLPRPRPRPNLLPRP
- shrunken log2 fold change: 0.00335

Sequence: RRIRARPPRLPRPRPRPNLNPRP
- shrunken log2 fold change: -0.0397

Sequence: RRIRARPPRLPRPRPRPNLQPRP
- shrunken log2 fold change: 0.177

Sequence: RRIRARPPRLPRPRPRPNNGPRP
- shrunken log2 fold change: 0.00213

Sequence: RRIRARPPRLPRPRPRPNPGPRP
- shrunken log2 fold change: 0.462

Sequence: RRIRARPPRLPRPRPRPNQPPRP
- shrunken log2 fold change: 0.0397

Sequence: RRIRARPPRLPRPRPRPNRSPRP
- shrunken log2 fold change: -0.229

Sequence: RRIRARPPRLPRPRPRPNRYPRP
- shrunken log2 fold change: -0.191

Sequence: RRIRARPPRLPRPRPRPNSYPRP
- shrunken log2 fold change: -0.00611

Sequence: RRIRARPPRLPRPRPRPNTAPRP
- shrunken log2 fold change: 0.181

Sequence: RRIRARPPRLPRPRPRPNTDPRP
- shrunken log2 fold change: -0.127

Sequence: RRIRARPPRLPRPRPRPNTEPRP
- shrunken log2 fold change: 0.154

Sequence: RRIRARPPRLPRPRPRPNVPPRP
- shrunken log2 fold change: 0.0126

Sequence: RRIRARPPRLPRPRPRPNWDPRP
- shrunken log2 fold change: 0.0564

Sequence: RRIRARPPRLPRPRPRPNYFPRP
- shrunken log2 fold change: -0.251

Sequence: RRIRARPPRLPRPRPRPPACPRP
- shrunken log2 fold change: 0.817

Sequence: RRIRARPPRLPRPRPRPPAHPRP
- shrunken log2 fold change: 0.912

Sequence: RRIRARPPRLPRPRPRPPCFPRP
- shrunken log2 fold change: 0.482

Sequence: RRIRARPPRLPRPRPRPPEIPRP
- shrunken log2 fold change: 0.301

Sequence: RRIRARPPRLPRPRPRPPFHPRP
- shrunken log2 fold change: 0.386

Sequence: RRIRARPPRLPRPRPRPPHLPRP
- shrunken log2 fold change: 2.23

Sequence: RRIRARPPRLPRPRPRPPHMPRP
- shrunken log2 fold change: 0.661

Sequence: RRIRARPPRLPRPRPRPPKPPRP
- shrunken log2 fold change: 0.689

Sequence: RRIRARPPRLPRPRPRPPKSPRP
- shrunken log2 fold change: 0.658

Sequence: RRIRARPPRLPRPRPRPPLTPRP
- shrunken log2 fold change: 0.536

Sequence: RRIRARPPRLPRPRPRPPNDPRP
- shrunken log2 fold change: 0.459

Sequence: RRIRARPPRLPRPRPRPPNGPRP
- shrunken log2 fold change: -0.00234

Sequence: RRIRARPPRLPRPRPRPPNIPRP
- shrunken log2 fold change: 0.0251

Sequence: RRIRARPPRLPRPRPRPPNKPRP
- shrunken log2 fold change: 0.23

Sequence: RRIRARPPRLPRPRPRPPNRPRP
- shrunken log2 fold change: 0.499

Sequence: RRIRARPPRLPRPRPRPPQQPRP
- shrunken log2 fold change: 0.758

Sequence: RRIRARPPRLPRPRPRPPRMPRP
- shrunken log2 fold change: 0.949

Sequence: RRIRARPPRLPRPRPRPPRRPRP
- shrunken log2 fold change: 0.923

Sequence: RRIRARPPRLPRPRPRPPRTPRP
- shrunken log2 fold change: 1.12
